# Measurements reported in FireProtDB (doi:10.1021/acs.biochem.5b01204).
# Values joined by “and” are separate entries in the source; they are usually repeats but may differ in a detail not shown here. Equal entries are not always repeated.
# B1: Sliding clamp wild type, P04525 (protein)
# chain: MKLSKDTTALLKNFATINSGIMLKSGQFIMTRAVNGTTYAEANISDVIDFDVAIYDLNGFLGILSLVNDDAEISQSEDGNIKIADARSTIFWPAADPSTVVAPNKPIPFPVASAVTEIKAEDLQQLLRVSRGLQIDTIAITVKEGKIVINGFNKVEDSALTRVKYSLTLGDYDGENTFNFIINMANMKMQPGNYKLLLWAKGKQGAAKFEGEHANYVVALEADSTHDF
# Details: Enterobacteria phage T4, pH 7.4, Sodium Phosphate Buffer, whole UniProt chain shown; for denaturant midpoint (higher = more stable): 25 °C, Urea
protein,measurement,setting,value
B1,denaturant midpoint (higher = more stable),"CD, transition: 3, reversible: yes",2.6 M and 5.7 M
same,denaturant midpoint (higher = more stable),CD,5.8 M and 2.5 M
same,denaturant midpoint (higher = more stable),"fluorescence, transition: 3, reversible: yes",2.7 M and 5.7 M
same,denaturant midpoint (higher = more stable),fluorescence,5.9 M
same,Tm,"Thermal, DSC, reversible: no",52.3 °C
same,unfolding enthalpy (calorimetric),"Thermal, DSC, reversible: no",83.6 kcal/mol
same,unfolding enthalpy (van 't Hoff),"Thermal, DSC, reversible: no",259 kcal/mol
